Residue numbers refer to the chain shown, from its start.
T1: Human TROP2 Protein, His Tag (Acro Biosystems) (human, UniProt P09758 27-274)
T1 construct: Bought protein; not shown: His tag
T1 sequence (looked up): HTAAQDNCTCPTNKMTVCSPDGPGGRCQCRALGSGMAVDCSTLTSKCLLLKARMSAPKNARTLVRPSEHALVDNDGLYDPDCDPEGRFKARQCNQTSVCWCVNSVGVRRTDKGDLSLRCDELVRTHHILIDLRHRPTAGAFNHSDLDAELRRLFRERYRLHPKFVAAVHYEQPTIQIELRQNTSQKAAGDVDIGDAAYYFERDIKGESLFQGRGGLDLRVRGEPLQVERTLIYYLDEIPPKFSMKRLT

T2: Human TROP2 Protein, His Tag (human, UniProt P09758 27-274)
T2 construct: Bought protein; also called TACSTD2; not shown: His tag
T2 sequence (looked up): T1 sequence (looked up)

T3: Human TROP2 Protein, His Tag (Acro Biosystems) (human, UniProt P09758 27-274)
T3 construct: Bought antigen used at 50 nM in the Octet screen; also called TACSTD2; not shown: His tag
T3 sequence (looked up): T1 sequence (looked up)

B1: MYT11622 (antibody, V domains shown)
VH: QVQLQQSGSELKKPGASVKVSCKASGYTFTNYGMNWVKQAPGQGLKWMGWINTYTGEPTYTDDFKGRFAFSLDTSVSTAYLQISSLKADDTAVYFCARGGFGSSYWYFDVWGQGSLVTVSS
VL: DIQLTQSPSSLSASVGDRVSITCKASQDVSIAVAWYQQKPGKAPKLLIYSASHRYTGVPDRFSGSGSGTDFTLTISSLQPEDFAVYYCQQHYITPLTFGAGTKVEIK
notes: Sacituzumab variant, His at LCV position 53 (L2 04)
B2: MYT11623 (antibody, V domains shown)
VH: B1 VH
VL: B1 VL with H53Y, R54H
notes: Sacituzumab variant, His at LCV position 54 (L2 05)
B3: MYT11631 (antibody, V domains shown)
VH: B1 VH
VL: B1 VL with H53Y, T94H
notes: Sacituzumab variant, His at LCV position 94 (L3 06)
B4: MYT11624 (antibody, V domains shown)
VH: B1 VH
VL: B1 VL with H53Y, Y55H
notes: Sacituzumab variant, His at LCV position 55 (L2 06)
B5: MYT11630 (antibody, V domains shown)
VH: B1 VH
VL: B1 VL with H53Y, I93H
notes: Sacituzumab variant, His at LCV position 93 (L3 05)
B6: MYT11627 (antibody, V domains shown)
VH: B1 VH
VL: B1 VL with H53Y, Q90H
notes: Sacituzumab variant, His at LCV position 90 (L3 02)
B7: MYT11625 (antibody, V domains shown)
VH: B1 VH
VL: B1 VL with H53Y, T56H
notes: Sacituzumab variant, His at LCV position 56 (L2 07)
B8: MYT11626 (antibody, V domains shown)
VH: B1 VH
VL: B1 VL with H53Y, Q89H
notes: Sacituzumab variant, His at LCV position 89 (L3 01)
B9: MYT11628 (antibody, V domains shown)
VH: B1 VH
VL: B1 VL with H53Y, H91A
notes: Sacituzumab variant, Ala at LCV position 91 (L3 03; His in the parent)
B10: MYT11629 (antibody, V domains shown)
VH: B1 VH
VL: B1 VL with H53Y, Y92H
notes: Sacituzumab variant, His at LCV position 92 (L3 04)
B11: MYT11632 (antibody, V domains shown)
VH: B1 VH
VL: B1 VL with H53Y, P95H
notes: Sacituzumab variant, His at LCV position 95 (L3 07)
B12: MYT11698 (antibody, V domains shown)
VH: QVQLVQSGAEVKKPGASVKVSCKASGYTFTTAGMQWVRQAPGQGLEWMGWINTHSGVPKYAEDFKGRVTISADTSTSTAYLQLSSLKSEDTAVYYCARSGFGSSYWYFDVWGQGTLVTVSS
VL: B1 VL with L4M, S20T, I31T, H53Y, D60S, Y92H, A100Q, V104L
notes: IgG from supernatant; His at LCV position 92; also called datopotamab variant L3 04
B13: MYT11701 (antibody, V domains shown)
VH: B12 VH
VL: B1 VL with L4M, S20T, I31T, H53Y, D60S, P95H, A100Q, V104L
notes: IgG from supernatant; His at LCV position 95; also called datopotamab variant L3 07
B14: MYT11700 (antibody, V domains shown)
VH: B12 VH
VL: B1 VL with L4M, S20T, I31T, H53Y, D60S, T94H, A100Q, V104L
notes: IgG from supernatant; His at LCV position 94; also called datopotamab variant L3 06
B15: MYT11702 (antibody, V domains shown)
VH: B12 VH
VL: B1 VL with L4M, S20T, I31T, H53Y, D60S, L96H, A100Q, V104L
notes: IgG from supernatant; His at LCV position 96; also called datopotamab variant L3 08
B16: MYT11696 (antibody, V domains shown)
VH: B12 VH
VL: B1 VL with L4M, S20T, I31T, H53Y, D60S, Q90H, A100Q, V104L
notes: IgG from supernatant; His at LCV position 90; also called datopotamab variant L3 02
B17: MYT11695 (antibody, V domains shown)
VH: B12 VH
VL: B1 VL with L4M, S20T, I31T, H53Y, D60S, Q89H, A100Q, V104L
notes: IgG from supernatant; His at LCV position 89; also called datopotamab variant L3 01
B18: MYT11703 (antibody, V domains shown)
VH: B12 VH
VL: B1 VL with L4M, S20T, I31T, H53Y, D60S, T97H, A100Q, V104L
notes: IgG from supernatant; His at LCV position 97; also called datopotamab variant L3 09
B19: MYT11694 (antibody, V domains shown)
VH: B12 VH
VL: B1 VL with L4M, S20T, I31T, H53Y, T56H, D60S, A100Q, V104L
notes: IgG from supernatant; His at LCV position 56; also called datopotamab variant L2 07
B20: MYT11697 (antibody, V domains shown)
VH: B12 VH
VL: B1 VL with L4M, S20T, I31T, H53Y, D60S, H91A, A100Q, V104L
notes: IgG from supernatant; Ala at LCV position 91 (starting residue His); also called datopotamab variant L3 03
B21: MYT11756 (antibody, V domains shown)
VH: QVQLQESGPGLVKPSETLSLTCTVSGGSISSYGVHWIRQPPGKGLEWIGVIWTSGVTDYNSALMGRVTISVDTSKNQFSLKLSSVTAADTAVYYCARDGDYDRYTMDYWGQGTLVTVSS
VL: DIVMTQSPDSLAVSLGERATINCRASKSVSTSGYSHMHWYQQKPGQPPKLLIYLASNLESGVPDRFSGSGSGTDFTLTISSLQAEDVAVYYCQHSRELPYTFGQGTKLEIK
notes: hu7E6SVG variant, His at LCV position 36 (L1 13); screened as IgG in Expi293 supernatant
B22: MYT11764 (antibody, V domains shown)
VH: B21 VH
VL: B21 VL with H36Y, E59H
notes: hu7E6SVG variant, His at LCV position 59 (L2 06); screened as IgG in Expi293 supernatant
B23: MYT11760 (antibody, V domains shown)
VH: B21 VH
VL: B21 VL with H36Y, A55H
notes: hu7E6SVG variant, His at LCV position 55 (L2 02); screened as IgG in Expi293 supernatant
B24: MYT11774 (antibody, V domains shown)
VH: B21 VH
VL: B21 VL with H36Y, T101H
notes: hu7E6SVG variant, His at LCV position 101 (L3 09); screened as IgG in Expi293 supernatant
B25: MYT11771 (antibody, V domains shown)
VH: B21 VH
VL: B21 VL with H36Y, L98H
notes: hu7E6SVG variant, His at LCV position 98 (L3 06); screened as IgG in Expi293 supernatant
B26: MYT11772 (antibody, V domains shown)
VH: B21 VH
VL: B21 VL with H36Y, P99H
notes: hu7E6SVG variant, His at LCV position 99 (L3 07); screened as IgG in Expi293 supernatant
B27: MYT11765 (antibody, V domains shown)
VH: B21 VH
VL: B21 VL with H36Y, S60H
notes: hu7E6SVG variant, His at LCV position 60 (L2 07); screened as IgG in Expi293 supernatant
B28: MYT11763 (antibody, V domains shown)
VH: B21 VH
VL: B21 VL with H36Y, L58H
notes: hu7E6SVG variant, His at LCV position 58 (L2 05); screened as IgG in Expi293 supernatant
B29: MYT11768 (antibody, V domains shown)
VH: B21 VH
VL: B21 VL with H36Y, S95H
notes: hu7E6SVG variant, His at LCV position 95 (L3 03); screened as IgG in Expi293 supernatant
B30: MYT11767 (antibody, V domains shown)
VH: B21 VH
VL: B21 VL with H36Y, H94A
notes: hu7E6SVG variant, Ala in place of His at LCV position 94 (L3 02); screened as IgG in Expi293 supernatant
B31: MYT11758 (antibody, V domains shown)
VH: B21 VH
VL: B21 VL with H36Y, H38A
notes: hu7E6SVG variant, Ala in place of His at LCV position 38 (L1 15); screened as IgG in Expi293 supernatant
B32: MYT11761 (antibody, V domains shown)
VH: B21 VH
VL: B21 VL with H36Y, S56H
notes: hu7E6SVG variant, His at LCV position 56 (L2 03); screened as IgG in Expi293 supernatant
B33: MYT11759 (antibody, V domains shown)
VH: B21 VH
VL: B21 VL with H36Y, L54H
notes: hu7E6SVG variant, His at LCV position 54 (L2 01); screened as IgG in Expi293 supernatant
B34: MYT11762 (antibody, V domains shown)
VH: B21 VH
VL: B21 VL with H36Y, N57H
notes: hu7E6SVG variant, His at LCV position 57 (L2 04); screened as IgG in Expi293 supernatant

molecular target: T1, Human TROP2 Protein, His Tag (Acro …); assay: BLI (Octet)

Row | binding result | Binder
1 | binds | B1
2 | binds | B2
3 | binds | B3
4 | binds | B4
5 | binds | B5
6 | binds | B6
7 | binds | B7
8 | binds | B8
9 | binds | B9
10 | binds | B10
11 | binds | B11

molecular target: T2, Human TROP2 Protein, His Tag; assay: BLI (Octet) [2/2]
Experimental: (§1) After allowing for four days of protein expression, cell culture supernatants were collected, quantified by SDS-PAGE analysis (DNS), and the pH dependence of the variant was evaluated using biolayer interferometry (BLI) on an Octet RED 96e instrument. Briefly, cell culture supernatants were diluted based on qualitative expression level of the variant determined by visual examination of SDS-PAGE gels, 5 μL of cell culture supernatant was diluted into 195 μL of 1×PBST, pH 7.4 for high expressors, 25 μL of cell culture supernatant was diluted into 175 μL of 1×PBST, pH 7.4 for medium expressors and 100 μL of cell culture supernatant was diluted into 100 μL of 1×PBST, pH 7.4 for low expressors for loading onto the sensor tips. The resulting diluted supernatants were then captured on an anti-human Fc sensor (Forte Bio). A baseline was established using 1×PBST (50 mM Potassium Phosphate Buffer+150 mM NaCl+0.05% Tween 20) pH 7.4, and the sensor was associated with 50 nM of TROP2 (Human TROP2 Protein, His Tag, Acro Biosystems) in 1×PBST pH 7.4 for 120 sec to generate an association curve. In the dissociation phase, the antibody-antigen complex on the sensor was exposed to 1×PBST pH 7.4 or pH 5.4, for 300 sec. Association and dissociation phase curves were examined for the starting ABPC antibody (with no substitutions) and each corresponding antibody variant at pH 5.4 and pH 7.4 to inform on two criteria: a) enhanced dissociation (i.e., higher koff values) at pH 5.4 due to histidine or alanine substitution compared to the starting ABPC, (with no substitutions), and b) reduced dissociation at pH 7.4 (i.e., lower koff values) compared to pH 5.4 in the antibody variant itself and with the starting ABPC (with no substitutions). […] It was also noted that while some mutations obliterated TROP2 binding, others were tolerated with little or n change in TROP2 binding kinetics.

Row | binding result | Binder
12 | no binding (tested: 50 nM) | B12
13 | binds | B13
14 | binds | B14
15 | no binding (tested: 50 nM) | B15
16 | binds | B16
17 | binds | B17
18 | no binding (tested: 50 nM) | B18
19 | binds | B19
20 | binds | B20

molecular target: T3, Human TROP2 Protein, His Tag (Acro …); assay: BLI (Octet) [2/2]
Experimental: as §1

Row | binding result | Binder
21 | binds | B21
22 | binds | B22
23 | binds | B23
24 | binds | B24
25 | no binding (tested: 50 nM) | B25
26 | binds | B26
27 | binds | B27
28 | binds | B28
29 | no binding (tested: 50 nM) | B29
30 | binds | B30
31 | binds | B31
32 | binds | B32
33 | binds | B33
34 | binds | B34

— patent US20260274985A1 (MYTHIC THERAPEUTICS, published 2026)
